Publication PMC3670040, “Structure of Lipid Kinase p110β/p85β Elucidates an Unusual SH2-Domain-Mediated Inhibitory Mechanism” (Molecular Cell, 2011)
Where two headings read alike, the source gives them in different places.

Tests used:
[1] = system: p110β; experiment: Transcreener ADP formation (fluorescence polarization), diC8-PIP2/POPS liposomes, mouse p110β complexes; type: biochemical; settings: Figure 5B, C-terminal truncation vs wild-type, diC8-PIP2/POPS, 100 μM ATP, 1 h, room temperature
Procedure: (§1) Figure 1 Inhibition of p110β by p85-Type Regulatory Subunits and Activation of the Complexes by RTK Phosphopeptide (A) Domain organization of p110β and the regulatory subunits p85α, p85β, and p55γ. The color scheme for the domains is used for all figures, unless otherwise stated. […] The inhibition is released upon addition of the 10 μM PDGFR pY2. […] The y axis is expressed as a change in fluorescence polarization (ΔmP), which is obtained by subtracting the observed polarization for the construct at a given enzyme concentration from the maximum fluorescence polarization for that construct. The plateau in these assays arises due to the competitive nature of the ADP detection system, based on displacement of ADP-Alexa 633 tracer from the ADP^2-antibody by ADP generated during the PI3K assay (see Supplemental Experimental Procedures). All measurements were done in triplicates, and the error bars indicate the standard error of the mean (SEM). (C) Kinase activity of p110β/p85β complexes with monomeric substrate (75 μM diC8-PIP2) in the presence and absence of pY2; y axis as in (B). (D) Basal- and pY2-stimulated activities of 35 nM PI3K complexes in the absence of lipids (ATP hydrolysis). Activities are given as percent of ATP converted to ADP using the Transcreener assay. Bars indicate SEM. TEXT PRINTED IN THE PICTURE: (B) p110β/nic: EC50 (nM): 15 | (B) p110β/nic+pY2: EC50 (nM): 0.14 | (B) p110β/ic: EC50 (nM): 1 | (B) p110β/ic+pY2: EC50 (nM): 0.21 | (B) p110β/ni: EC50 (nM): 0.84 | (B) p110β/ni+pY2: EC50 (nM): 0.24 | (B) p110β/i: EC50 (nM): 0.12 | (B) p110β/i+pY2: EC50 (nM): 0.14 | (B) ΔABD-p110β: EC50 (nM): 0.06 | (B) ΔABD-p110β+pY2: EC50 (nM): 0.05 | (C) p110β/nic: EC50 (nM): 24 | (C) p110β/nic+pY2: EC50 (nM): 3 | (C) p110β/ic: EC50 (nM): 5 | (C) p110β/ic+pY2: EC50 (nM): 2 | (C) p110β/ni: EC50 (nM): 4 | (C) p110β/ni+pY2: EC50 (nM): 2 […]
(§2) Figure 3 Mutation Y677A in p85β-cSH2 Releases Inhibitory Effect on p110β (A) Kinase activity (ADP formation) of p110β in a complex with p85β-icSH2-Y677A (Y677A-ic) compared to the wild-type complex (ic) in the absence and presence of 10 μM PDGFR pY2 (ADP formation on the y axis expressed as in Figure 1B). (B) Comparison of p110β activities of 1 nM complexes with wild-type or Y677 mutant nicSH2 or icSH2 (activity shown as in Figure 1D). TEXT PRINTED IN THE PICTURE: (A) p110β/ic: EC50 (nM): 1 | (A) p110β/ic+pY2: EC50 (nM): 0.15 | (A) p110β/ic-Y677A: EC50 (nM): 0.11 | (A) p110β/ic-Y677A+pY2: EC50 (nM): 0.08 […]
(§3) The lipid kinase activity was determined using the Transcreener ADP2 FP Assay (BellBrook Labs, Madison, WI) according to manufacturer‟s specifications. This non-radioactive assay measures activity by quantitating the amount of ADP formed. The ADP formed by PI3K competes with fluorescent ADP tracer for binding to an anti-ADP antibody, thereby decreasing fluorescence polarization. Because of the competitive nature of this assay, the change in fluorescence polarization signal is not a linear function of enzyme activity, and a convenient measure of enzyme activity is the EC50, or the concentration of enzyme necessary to give half-maximal inhibition of labeled ADP binding to the antibody, for a given concentration of substrate and a fixed time of reaction at initial rate. While activity of two different enzyme constructs can be compared at a fixed concentration of protein and a fixed concentration of substrate, the assay is most reliable when about 2%-10% of the ATP is […]
(§4) Consequently, the EC50 provides a convenient way to compare the activities of various constructs. Briefly, reactions were performed in 10 μl volume in 384-well black plates (Corning 3676) and they contained final 100 μM ATP, 75 μM lipids and a series of protein concentration varying from 0.001 nM to 2.5 μM. Serial dilutions of protein heterodimers were prepared in buffer F (50 mM Hepes pH 7.5, 100 mM NaCl, 0.03% CHAPS, 4 mM DTT) in 5 μl […]
volume. […]

[2] = molecular target: T1, p110β (Mus musculus, UniProt Q8BTI9); experiment: as above; type: biochemical; settings: Figure 5B
T1 construct: Mouse His6-p110β(1-1064)/p85β-icSH2(423-722) complex; made in house; host or cells: Sf9 insect cells (baculovirus co-infection)
T1 sequence (Q8BTI9 1-1047): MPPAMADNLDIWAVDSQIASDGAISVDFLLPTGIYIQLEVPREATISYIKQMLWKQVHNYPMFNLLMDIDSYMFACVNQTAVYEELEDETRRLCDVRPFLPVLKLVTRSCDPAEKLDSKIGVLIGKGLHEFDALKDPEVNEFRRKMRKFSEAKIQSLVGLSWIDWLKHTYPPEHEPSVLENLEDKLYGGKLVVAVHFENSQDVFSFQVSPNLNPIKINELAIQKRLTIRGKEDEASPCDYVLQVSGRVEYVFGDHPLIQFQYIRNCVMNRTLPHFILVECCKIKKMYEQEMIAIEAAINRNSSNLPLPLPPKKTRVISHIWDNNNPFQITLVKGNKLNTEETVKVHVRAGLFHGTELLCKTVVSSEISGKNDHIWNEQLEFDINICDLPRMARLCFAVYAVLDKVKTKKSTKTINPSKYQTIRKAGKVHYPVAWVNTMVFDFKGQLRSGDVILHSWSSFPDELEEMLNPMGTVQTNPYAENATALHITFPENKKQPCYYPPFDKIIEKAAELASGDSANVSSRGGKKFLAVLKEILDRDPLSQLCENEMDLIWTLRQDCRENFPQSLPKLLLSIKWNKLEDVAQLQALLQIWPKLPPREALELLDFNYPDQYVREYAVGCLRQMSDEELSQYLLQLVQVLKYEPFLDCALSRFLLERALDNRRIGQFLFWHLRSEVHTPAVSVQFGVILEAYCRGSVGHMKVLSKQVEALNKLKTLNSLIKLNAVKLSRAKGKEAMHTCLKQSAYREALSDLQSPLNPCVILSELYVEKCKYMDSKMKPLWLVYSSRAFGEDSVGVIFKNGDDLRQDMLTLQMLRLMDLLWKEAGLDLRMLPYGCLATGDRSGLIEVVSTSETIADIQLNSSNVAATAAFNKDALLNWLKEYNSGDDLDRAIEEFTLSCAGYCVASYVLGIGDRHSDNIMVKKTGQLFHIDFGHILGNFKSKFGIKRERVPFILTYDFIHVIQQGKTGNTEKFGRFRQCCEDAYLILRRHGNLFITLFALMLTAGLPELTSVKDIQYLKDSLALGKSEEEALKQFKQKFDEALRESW
T1 sequence (O08908 318-722 partner): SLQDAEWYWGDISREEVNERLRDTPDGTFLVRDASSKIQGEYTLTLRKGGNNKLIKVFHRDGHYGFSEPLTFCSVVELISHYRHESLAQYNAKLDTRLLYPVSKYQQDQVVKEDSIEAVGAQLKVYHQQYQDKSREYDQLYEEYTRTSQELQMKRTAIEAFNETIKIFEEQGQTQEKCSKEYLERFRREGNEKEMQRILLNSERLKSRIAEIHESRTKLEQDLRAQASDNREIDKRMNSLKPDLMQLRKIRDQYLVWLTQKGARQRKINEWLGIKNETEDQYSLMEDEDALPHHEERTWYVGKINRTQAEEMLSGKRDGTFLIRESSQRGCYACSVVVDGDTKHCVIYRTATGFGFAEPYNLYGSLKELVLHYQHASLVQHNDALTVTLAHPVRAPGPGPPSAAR
Procedure: as §1, §2, §3, §4
volume. […]

B1: p110β-ΔCter/nic: truncation mutant lacking 17 residues from the p110β C terminus; human ΔCter (1-1053) used in cells (protein, UniProt P42338 1-1053, looked up, fragment)
chain: MCFSFIMPPAMADILDIWAVDSQIASDGSIPVDFLLPTGIYIQLEVPREATISYIKQMLWKQVHNYPMFNLLMDIDSYMFACVNQTAVYEELEDETRRLCDVRPFLPVLKLVTRSCDPGEKLDSKIGVLIGKGLHEFDSLKDPEVNEFRRKMRKFSEEKILSLVGLSWMDWLKQTYPPEHEPSIPENLEDKLYGGKLIVAVHFENCQDVFSFQVSPNMNPIKVNELAIQKRLTIHGKEDEVSPYDYVLQVSGRVEYVFGDHPLIQFQYIRNCVMNRALPHFILVECCKIKKMYEQEMIAIEAAINRNSSNLPLPLPPKKTRIISHVWENNNPFQIVLVKGNKLNTEETVKVHVRAGLFHGTELLCKTIVSSEVSGKNDHIWNEPLEFDINICDLPRMARLCFAVYAVLDKVKTKKSTKTINPSKYQTIRKAGKVHYPVAWVNTMVFDFKGQLRTGDIILHSWSSFPDELEEMLNPMGTVQTNPYTENATALHVKFPENKKQPYYYPPFDKIIEKAAEIASSDSANVSSRGGKKFLPVLKEILDRDPLSQLCENEMDLIWTLRQDCREIFPQSLPKLLLSIKWNKLEDVAQLQALLQIWPKLPPREALELLDFNYPDQYVREYAVGCLRQMSDEELSQYLLQLVQVLKYEPFLDCALSRFLLERALGNRRIGQFLFWHLRSEVHIPAVSVQFGVILEAYCRGSVGHMKVLSKQVEALNKLKTLNSLIKLNAVKLNRAKGKEAMHTCLKQSAYREALSDLQSPLNPCVILSELYVEKCKYMDSKMKPLWLVYNNKVFGEDSVGVIFKNGDDLRQDMLTLQMLRLMDLLWKEAGLDLRMLPYGCLATGDRSGLIEVVSTSETIADIQLNSSNVAAAAAFNKDALLNWLKEYNSGDDLDRAIEEFTLSCAGYCVASYVLGIGDRHSDNIMVKKTGQLFHIDFGHILGNFKSKFGIKRERVPFILTYDFIHVIQQGKTGNTEKFGRFRQCCEDAYLILRRHGNLFITLFALMLTAGLPELTSVKDIQYLKDSLALGKSEEEALKQFKQKFDEALRESW
In the case of B1, the EC50 ([1]; absence of pY2, read-out: EC50 (enzyme concentration), lipid kinase activity, basal) is reported as 38 nM, the EC50 ([1]; with 10 μM PDGFR pY2, read-out: EC50 (enzyme concentration), lipid kinase activity, + pY2) is reported as 57 nM and the “basal activity with diC8-PIP2/POPS” value [2] is reported as “very low basal activity”.
